Patent publication US20170360911A1 (SAPPORO MEDICAL UNIVERSITY, published 2017)

How the values were obtained:
[1] = target: T1, HLA-A*02:01 (human); experiment: T2-A24 MHC class I stabilization, flow cytometry, anti-HLA-A02 BB7.2-FITC, peptide 100 ug/mL
T1 construct: whole, on cells; Empty class I molecule on TAP-deficient T2-A24 cells; detected with anti-HLA-A02 antibody BB7.2

[2] = target: T2, HLA-A*24:02 (human); experiment: T2-A24 MHC class I stabilization, flow cytometry, anti-HLA-A24 17A10-FITC, peptide 100 ug/mL;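 also: peptide exposure stabilizes otherwise empty class I molecules on T2 cell surfaces, so surface class I level reflects how strongly the peptide binds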
T2 construct: whole, on cells; Empty class I molecule on T2-A24 cells
Protocol: T2 cells can usually only express a low level of empty MHC class I molecules on the cell surface. However, when a peptide that can bind to the MHC class I molecule is added, the empty MHC class I molecule binds to the peptide and can be present on the cell surface in a stable manner. Therefore, the cell surface MHC class I expression level depends on the MHC class I binding affinity of a peptide.
The T2-A24 cells were subcultured at 37° C. under 5% CO₂. […] These peptides were dissolved in DMSO and further diluted by 200 times with RPMI 160 medium. A cell suspension and the peptide solution were mixed and cultured under conditions of 5% CO₂ and 26° C. for 16 to 18 hours. Co-culturing was carried out at a temperature of 37° C. for a further 3 hours, the supernatant was then removed by centrifuging, and cells were isolated. […] Subsequently, the cells were washed with 3% FBS-containing PBS, 4% paraformaldehyde phosphate buffer was added, and the mixture was allowed to stand at room temperature for 10 minutes to thus fix the cells. The fixed cells were subjected to measurement of FITC fluorescence intensity by a flow cytometer (FACScan). The mean fluorescence intensity (MFI) was calculated as a solvent ratio.

B1: As265_10 (peptide)
peptide: HVLMHMMLEA
For B1, which “MFI (solvent ratio)” value [1] is on record?
The value was 2 ratio to solvent.

B2: As280_10 (peptide)
peptide: LMDINGCAAI
What does the source list for B2?
MFI (solvent ratio) [1]: 3.1 ratio to solvent; MFI (solvent ratio) [2]: 1.2 ratio to solvent

B3: As383_10_5L (peptide)
peptide: TLMHLSRCAI
With B3 as the binder, how does the “MFI (solvent ratio)” value [1] read?
The value was 2.4 ratio to solvent.

And the “MFI (solvent ratio)” value [2]?
Its value is 1 ratio to solvent.

B4: As416_10 (peptide)
peptide: YLLLEPEGII
How did the “MFI (solvent ratio)” value [1] turn out when B4 was run?
The value was 2.8 ratio to solvent.

B5: As76_10 (peptide)
peptide: ATGLHLSVLF
For B5, which “MFI (solvent ratio)” value [1] is on record?
Its value is 0.9 ratio to solvent.

What about the “MFI (solvent ratio)” value [2] of the same binder?
The value was 2.1 ratio to solvent.

B6: As192_10 (peptide)
peptide: AFYVEHGAIF
What does the source list for B6?
MFI (solvent ratio) [1]: 1.1 ratio to solvent; MFI (solvent ratio) [2]: 2.2 ratio to solvent

B7: As82_10 (peptide)
peptide: SVLFGHVECL
With B7 as the binder, how does the “MFI (solvent ratio)” value [1] read?
The value was 3.3 ratio to solvent.

And the “MFI (solvent ratio)” value [2]?
The value was 2.7 ratio to solvent.

B8: As211_10 (peptide)
peptide: PLAIAAYWAL
With B8 as the binder, how does the “MFI (solvent ratio)” value [1] read?
The value was 1.1 ratio to solvent.

What about the “MFI (solvent ratio)” value [2] of the same binder?
Its value is 2.1 ratio to solvent.

B9: As289_10 (peptide)
peptide: IQYVLKVTSV
B9 was tested. Which “MFI (solvent ratio)” value [1] did it give?
Its value is 1.2 ratio to solvent.

What about the “MFI (solvent ratio)” value [2] of the same binder?
The value was 1.5 ratio to solvent.

B10: As318_10 (peptide)
peptide: RIYPPQFHKV
With B10 as the binder, how does the “MFI (solvent ratio)” value [2] read?
The value was 3.6 ratio to solvent.

B11: IV9 (peptide)
peptide: IYPPQFHKV
notes: also called ASB4 peptide
Which results are given for B11?
MFI (solvent ratio) [1]: 0.9 ratio to solvent; MFI (solvent ratio) [2]: 3.3 ratio to solvent

B12: As365_12 (peptide)
peptide: KYWDFYHSLFTV
What does the source list for B12?
MFI (solvent ratio) [1]: 1 ratio to solvent; MFI (solvent ratio) [2]: 2.4 ratio to solvent

B13: As365_9 (peptide)
peptide: KYWDFYHSL
For B13, which “MFI (solvent ratio)” value [1] is on record?
The value was 1.1 ratio to solvent.

What about the “MFI (solvent ratio)” value [2] of the same binder?
Its value is 2.5 ratio to solvent.

B14: As15_11 (peptide)
peptide: KLVKRNFLEAL
For B14, which “MFI (solvent ratio)” value [1] is on record?
Its value is 1 ratio to solvent.

And the “MFI (solvent ratio)” value [2]?
The value was 1 ratio to solvent.

B15: As29_9 (peptide)
peptide: DFGKLKAIL
What does the source list for B15?
MFI (solvent ratio) [1]: 1 ratio to solvent; MFI (solvent ratio) [2]: 1 ratio to solvent

B16: As41_10 (peptide)
peptide: QIDVDTVFEV
notes: 41-50 follows from start and length
B16 was tested. Which “MFI (solvent ratio)” value [1] did it give?
Its value is 1.2 ratio to solvent.

What about the “MFI (solvent ratio)” value [2] of the same binder?
The value was 1.1 ratio to solvent.

B17: As48_10 (peptide)
peptide: FEVEDENMVL
With B17 as the binder, how does the “MFI (solvent ratio)” value [1] read?
The value was 1 ratio to solvent.

B18: As124_10 (peptide)
peptide: KILCDRGAKL
What does the source list for B18?
MFI (solvent ratio) [1]: 1.6 ratio to solvent; MFI (solvent ratio) [2]: 2.2 ratio to solvent

B19: As63_9 (peptide)
peptide: GYWLPSYKL
Which results are given for B19?
MFI (solvent ratio) [1]: 1.1 ratio to solvent; MFI (solvent ratio) [2]: 1.2 ratio to solvent

B20: As70_10 (peptide)
peptide: KLKSSWATGL
With B20 as the binder, how does the “MFI (solvent ratio)” value [1] read?
The value was 1.1 ratio to solvent.

And the “MFI (solvent ratio)” value [2]?
The value was 1 ratio to solvent.

B21: As145_10 (peptide)
peptide: HFCTTPSSIL
Which results are given for B21?
MFI (solvent ratio) [1]: 1 ratio to solvent; MFI (solvent ratio) [2]: 1.2 ratio to solvent

B22: As157_10 (peptide)
peptide: KQLVWRGANV
What does the source list for B22?
MFI (solvent ratio) [1]: 1.2 ratio to solvent; MFI (solvent ratio) [2]: 1 ratio to solvent

B23: As271_10 (peptide)
peptide: MLEAGAEANL
notes: read as 39 from its place between 38 and 40
Which results are given for B23?
MFI (solvent ratio) [1]: 1 ratio to solvent; MFI (solvent ratio) [2]: 1.2 ratio to solvent

B24: As290_9 (peptide)
peptide: QYVLKVTSV
For B24, which “MFI (solvent ratio)” value [1] is on record?
Its value is 1 ratio to solvent.

B25: As310_10 (peptide)
peptide: LLLNHGAARI
With B25 as the binder, how does the “MFI (solvent ratio)” value [2] read?
The value was 1.2 ratio to solvent.

B26: As311_9 (peptide)
peptide: LLNHGAARI
With B26 as the binder, how does the “MFI (solvent ratio)” value [1] read?
The value was 0.9 ratio to solvent.

And the “MFI (solvent ratio)” value [2]?
Its value is 0.9 ratio to solvent.

B27: As340_9 (peptide)
peptide: VVVNAYEHI
B27 was tested. Which “MFI (solvent ratio)” value [1] did it give?
The value was 0.9 ratio to solvent.

What about the “MFI (solvent ratio)” value [2] of the same binder?
The value was 1 ratio to solvent.

B28: As368_9 (peptide)
peptide: DFYHSLFTV
B28 was tested. Which “MFI (solvent ratio)” value [1] did it give?
Its value is 1 ratio to solvent.

What about the “MFI (solvent ratio)” value [2] of the same binder?
Its value is 1.1 ratio to solvent.

B29: As125_9 (peptide)
peptide: ILCDRGAKL
B29 was tested. Which “MFI (solvent ratio)” value [1] did it give?
Its value is 1.9 ratio to solvent.

And the “MFI (solvent ratio)” value [2]?
Its value is 1.8 ratio to solvent.

B30: As403_9 (peptide)
peptide: AIPLLSLPL
How did the “MFI (solvent ratio)” value [1] turn out when B30 was run?
Its value is 0.9 ratio to solvent.

What about the “MFI (solvent ratio)” value [2] of the same binder?
The value was 1.1 ratio to solvent.

B31: As408_10 (peptide)
peptide: SLPLSLKKYL
How did the “MFI (solvent ratio)” value [1] turn out when B31 was run?
The value was 1 ratio to solvent.

What about the “MFI (solvent ratio)” value [2] of the same binder?
Its value is 1 ratio to solvent.

B32: As184_12 (peptide)
peptide: HFGLSELVAFYV
For B32, which “MFI (solvent ratio)” value [1] is on record?
The value was 3.1 ratio to solvent.

And the “MFI (solvent ratio)” value [2]?
Its value is 3.2 ratio to solvent.

B33: As135_10 (peptide)
peptide: CYSLSGHTAL
With B33 as the binder, how does the “MFI (solvent ratio)” value [1] read?
Its value is 1.6 ratio to solvent.

What about the “MFI (solvent ratio)” value [2] of the same binder?
The value was 2.4 ratio to solvent.

B34: As83_10 (peptide)
peptide: VLFGHVECLL
For B34, which “MFI (solvent ratio)” value [1] is on record?
Its value is 3.6 ratio to solvent.

And the “MFI (solvent ratio)” value [2]?
Its value is 2.8 ratio to solvent.

B35: As87_9 (peptide)
peptide: HVECLLVLL
What does the source list for B35?
MFI (solvent ratio) [1]: 1.5 ratio to solvent; MFI (solvent ratio) [2]: 1.6 ratio to solvent

B36: As307_10 (peptide)
peptide: CYQLLLNHGA
For B36, which “MFI (solvent ratio)” value [1] is on record?
The value was 2.5 ratio to solvent.

And the “MFI (solvent ratio)” value [2]?
The value was 1.9 ratio to solvent.

B37: As301_11 (peptide)
peptide: AAQPEICYQLL
With B37 as the binder, how does the “MFI (solvent ratio)” value [1] read?
Its value is 2.6 ratio to solvent.

What about the “MFI (solvent ratio)” value [2] of the same binder?
Its value is 2 ratio to solvent.

B38: As405_9 (peptide)
peptide: PLLSLPLSL
What does the source list for B38?
MFI (solvent ratio) [1]: 2.2 ratio to solvent; MFI (solvent ratio) [2]: 2.8 ratio to solvent

B39: As35_10 (peptide)
peptide: AILIQRQIDV
What does the source list for B39?
MFI (solvent ratio) [1]: 3.4 ratio to solvent; MFI (solvent ratio) [2]: 1.1 ratio to solvent

B40: As80_9 (peptide)
peptide: HLSVLFGHV
B40 was tested. Which “MFI (solvent ratio)” value [1] did it give?
Its value is 1.6 ratio to solvent.

And the “MFI (solvent ratio)” value [2]?
Its value is 2.1 ratio to solvent.

B41: As92_10 (peptide)
peptide: LVLLDHNATI
What does the source list for B41?
MFI (solvent ratio) [1]: 2.6 ratio to solvent; MFI (solvent ratio) [2]: 1.1 ratio to solvent

B42: As152_9 (peptide)
peptide: SILCAKQLV
With B42 as the binder, how does the “MFI (solvent ratio)” value [1] read?
The value was 1.8 ratio to solvent.

B43: As186_10 (peptide)
peptide: GLSELVAFYV
For B43, which “MFI (solvent ratio)” value [1] is on record?
The value was 2.6 ratio to solvent.

What about the “MFI (solvent ratio)” value [2] of the same binder?
Its value is 1.1 ratio to solvent.

B44: As236_10 (peptide)
peptide: RMLLDYKAEV
With B44 as the binder, how does the “MFI (solvent ratio)” value [1] read?
The value was 3.3 ratio to solvent.

And the “MFI (solvent ratio)” value [2]?
Its value is 1 ratio to solvent.
